Assay results published in US20240254204A1 (NATIONAL UNIVERSITY OF SINGAPORE, published 2024).
“And” between values parts separate entries of the source, which are not always exact repeats. Equal values may be shown once.

Key:
Test in all cases: cell-based or functional assay
[1] = target: SARS-COV-2 Delta full-length spike (SARS-CoV-2 Delta)
[2] = target: SARS-COV-2 Alpha full-length spike (SARS-CoV-2 Alpha)
[3] = target: SARS-COV-2 Beta full-length spike (SARS-CoV-2 Beta)
[4] = target: SARS-COV-2 Gamma full-length spike (SARS-CoV-2 Gamma)

Measured: pseudovirus neutralization NT50

B1: Antibody 11 (SS6V11-E7) (antibody, V domains shown)
VH: QVQLQESGPGLVKPSETLSLTCTVSGGFIGPHYWSWVRQPPGKGLEWIGYIYISGSTNYNPSLKSRLTISVDMSKSQFSLTLSSATAADTAVYYCARGGGYLETGPFEYWGQGTLVTVSS
VL: DIVMTQSPLSLPVTPGEPASISCRSSQSLLQNNGYNYLAWYLQKPGQSPQLLIYLSSTRASGVPDRFSGSGSGTDFTLKISRVEAEDVGVYYCMQSLQIPGTFGQGTRLEIK
< 10 ng/ml and < 0.067 nM: all assays above

B2: Antibody 20 (SS6V20-F5) (antibody, V domains shown)
VH: QVQLQESGPGLVKPSETLSLTCTVSGGSIIGYYWSWIRQPPGKGLEWIGYIYFSANTNYNPSLKSRVTMSVDMSKKQFSLKLRSVTAADTAVYYCARGGGYLETGPLDFWGQGILVTVSS
VL: DIVMTQSPLSLPVTPGEPASISCRSSQSLMQLNGYNYLAWYLQRPGQSPQLLIYLGSTRASGVPDRFSGSGSGTDFTLKITRVEAEDVGVYYCMQGLQIPGTFGQGTRLEIK
< 10 ng/ml and < 0.067 nM: all assays above

B3: Antibody 13 (SS6V13-F1) (antibody, V domains shown)
VH: QVQLQESGPGLVKPSETLSLTCSVSGVSILGSYWGWIRQPPGTGLQWIGYIYFSENTNYNPSLQSRVTMSLDTSKNLLSLKLSSVTAADTAVYYCARGGGYLETGPFDSWGQGTLVTVSS
VL: DIVMTQSPLSLPVTPGEPASISCRSSQGLVQSNGYNYLAWYLQKPGQSPQLLIYLGSNRASGVPDRFSGSGSGTDFTLKISRVEAEDVGVYYCMQGLQTPGTFGQGTRLEIK
< 10 ng/ml and < 0.067 nM: all assays above
